± gives the uncertainty stated by the source.
B1: Probable E3 ubiquitin-protein ligase MID2, residues 191 to 235; numbered along this chain, Q9UJV3 (parent)
chain: RGITCLDHENEKVNMYCVSDDQLICALCKLVGRHRDHQVASLNDR
B2: Zinc finger homeobox protein 3, residues 2244 to 2299; numbered along this chain, Q15911 (parent)
chain: SSRTRFTDYQLRVLQDFFDANAYPKDDEFEQLSNLLNLPTRVIVVWFQNARQKARK

Variants of: B1
Assay: abundance fitness (aPCA) (normalised: wild type 0, dead -1); higher = more abundant; growth selection in yeast, the domain comes from the species named
Settings: Homo sapiens

| Variant | abundance fitness |
| --- | --- |
| K29I | -0.037 ± 0.096 |
| N43M | -0.252 ± 0.19 |
| K29H | -0.032 ± 0.39 |
| R33T | -0.024 ± 0.068 |
| S41D | 0.087 ± 0.074 |
| L42C | 0.269 ± 0.14 |
| V13I | 0.1 ± 0.12 |
| A40K | -0.138 ± 0.12 |
| R45Q | 0.033 ± 0.06 |
| R1S | -0.187 ± 0.059 |
| R33F | -0.764 ± 0.36 |
| C25Q | -1.02 ± 0.15 |
| N10F | -0.577 ± 0.12 |
| C28E | -0.897 ± 0.2 |
| C5K | -0.379 ± 0.097 |
| L23W | -0.038 ± 0.072 |
| V18A | 0.054 ± 0.044 |
| N43L | -0.126 ± 0.067 |
| A40S | 0.063 ± 0.057 |
| C28P | -0.439 ± 0.12 |
| Y16T | -0.392 ± 0.08 |
| D20H | -0.459 ± 0.098 |
| I24K | -0.105 ± 0.1 |

| Variant | abundance fitness |
| --- | --- |
| L6D | 0.124 ± 0.099 |
| G2W | -0.403 ± 0.057 |
| C25K | -0.951 ± 0.3 |
| A26E | 0.031 ± 0.081 |
| R1F | 0.127 ± 0.3 |
| R45I | -0.033 ± 0.13 |
| C17E | -0.163 ± 0.12 |
| L23K | 0.213 ± 0.081 |
| C25A | -1.12 ± 0.18 |
| N14T | 0.049 ± 0.068 |
| S19Y | -0.296 ± 0.18 |
| D44G | -0.075 ± 0.057 |
| N10W | -0.394 ± 0.055 |
| C25G | -0.805 ± 0.088 |
| L42P | -0.363 ± 0.21 |
| G2S | -0.069 ± 0.065 |
| S19P | -0.047 ± 0.066 |
| A40W | -0.155 ± 0.07 |
| C25N | -1.14 ± 0.16 |
| E11P | -0.838 ± 0.17 |
| C5D | -0.39 ± 0.076 |
| K12E | 0.104 ± 0.065 |
| R33L | -0.026 ± 0.064 |

| Variant | abundance fitness |
| --- | --- |
| N43A | 0.1 ± 0.059 |
| V31F | -0.046 ± 0.17 |
| K12I | -0.244 ± 0.15 |
| E9S | -0.033 ± 0.065 |
| E9W | -0.252 ± 0.054 |
| V13Q | -0.047 ± 0.12 |
| R35M | -0.024 ± 0.1 |
| C28D | -0.469 ± 0.084 |
| T4A | -0.238 ± 0.053 |
| M15P | -0.251 ± 0.07 |
| V31Q | 0.152 ± 0.062 |
| L27N | 0.311 ± 0.11 |
| C17Q | -0.369 ± 0.15 |
| Q22Y | -0.264 ± 0.35 |
| S19R | -0.041 ± 0.046 |
| Y16Q | 0.236 ± 0.091 |
| G32I | -0.459 ± 0.23 |
| R1L | -0.194 ± 0.081 |
| Q22T | -0.062 ± 0.12 |
| D36W | -0.311 ± 0.079 |
| C5W | -0.706 ± 0.066 |
| R45C | 0.018 ± 0.072 |
| V39Y | -0.335 ± 0.2 |

| Variant | abundance fitness |
| --- | --- |
| T4R | -0.205 ± 0.048 |
| Q22S | 0.049 ± 0.056 |
| R33P | 0.038 ± 0.12 |
| M15V | -0.277 ± 0.069 |
| R45F | 0.151 ± 0.23 |
| L6Y | 0.064 ± 0.13 |
| D44F | -0.422 ± 0.12 |
| M15T | -0.1 ± 0.069 |
| N43R | -0.154 ± 0.054 |
| K12G | -0.102 ± 0.05 |
| R1W | -0.502 ± 0.073 |
| R45K | 0.025 ± 0.11 |
| V31N | 0.184 ± 0.12 |
| S19D | -0.18 ± 0.11 |
| L6R | 0.103 ± 0.042 |
| V31Y | -0.117 ± 0.084 |
| D21H | -0.283 ± 0.1 |
| G2P | -0.222 ± 0.089 |
| V18P | -0.025 ± 0.082 |
| C28Y | -1.14 ± 0.3 |
| C5F | -0.951 ± 0.31 |
| L42E | 0.091 ± 0.14 |
| N14D | -0.132 ± 0.1 |

| Variant | abundance fitness |
| --- | --- |
| K29P | -0.054 ± 0.082 |
| R35W | -0.602 ± 0.093 |
| R35G | -0.002 ± 0.05 |
| D36R | -0.255 ± 0.061 |
| G2D | 0.108 ± 0.085 |
| N14A | 0 ± 0.062 |
| D7G | -0.364 ± 0.046 |
| G32Q | -0.472 ± 0.081 |
| V13W | -0.619 ± 0.18 |
| L42Y | -0.127 ± 0.11 |
| A40F | -0.176 ± 0.1 |
| Q38M | -0.25 ± 0.085 |
| L27I | -0.466 ± 0.27 |
| S19Q | 0.097 ± 0.06 |
| H37A | -0.313 ± 0.065 |
| G2T | -0.06 ± 0.086 |
| A40H | -0.296 ± 0.18 |
| Q38I | -0.357 ± 0.21 |
| M15D | 0.001 ± 0.064 |
| C28A | -0.805 ± 0.079 |
| C25Y | -0.841 ± 0.26 |
| L30H | -0.012 ± 0.09 |
| R1T | -0.118 ± 0.092 |

| Variant | abundance fitness |
| --- | --- |
| H34G | -0.383 ± 0.063 |
| Y16M | -0.321 ± 0.15 |
| V39D | -0.258 ± 0.071 |
| S41R | -0.039 ± 0.053 |
| N43E | 0.192 ± 0.065 |
| C28T | -0.541 ± 0.12 |
| R33E | -0.022 ± 0.093 |
| N43I | -0.275 ± 0.2 |
| L42K | -0.054 ± 0.073 |
| D7Y | -0.112 ± 0.098 |
| R35D | -0.242 ± 0.1 |
| I3Y | 0.072 ± 0.12 |
| D44K | -0.175 ± 0.083 |
| L30N | 0.078 ± 0.13 |
| R45W | -0.164 ± 0.082 |
| D7I | -0.015 ± 0.089 |
| L27F | 0.099 ± 0.12 |
| L30K | 0.348 ± 0.11 |

Variants of: B2
Assay: as above
Settings: Homo sapiens

| Variant | abundance fitness |
| --- | --- |
| L32H | -0.878 ± 0.24 |
| F18I | -0.249 ± 0.22 |
| E28F | -0.603 ± 0.21 |
| L11Y | -0.404 ± 0.2 |
| L38K | -0.531 ± 0.17 |
| F17Y | 0.03 ± 0.13 |
| N21T | 0.011 ± 0.13 |
| Q52F | -0.21 ± 0.08 |
| L38T | -0.166 ± 0.12 |
| Q52L | -0.107 ± 0.065 |
| L32I | -0.17 ± 0.27 |
| V13K | 0.008 ± 0.11 |
| A50D | -1.01 ± 0.17 |
| D27N | -0.063 ± 0.15 |
| R5P | 0.026 ± 0.092 |
| L11M | 0.204 ± 0.16 |
| Q31I | 0.117 ± 0.29 |

| Variant | abundance fitness |
| --- | --- |
| D19R | -0.012 ± 0.14 |
| P24G | -1.24 ± 0.28 |
| L32A | -0.568 ± 0.1 |
| T40R | -0.139 ± 0.078 |
| L11A | -0.181 ± 0.084 |
| K25Q | -0.26 ± 0.14 |
| D26H | -0.683 ± 0.26 |
| Q15C | -0.668 ± 0.16 |
| F47V | -0.565 ± 0.083 |
| Y9L | -0.216 ± 0.092 |
| R55T | -0.043 ± 0.089 |
| R5I | 0.323 ± 0.092 |
| V42Y | -0.134 ± 0.17 |
| R3F | 0.387 ± 0.18 |
| S2I | 0.393 ± 0.2 |
| N34A | 0.067 ± 0.14 |
| V44Q | -0.015 ± 0.15 |
